Test results: article PMC12216690, “MORC2 is a phosphorylation-dependent DNA compaction machine” (Nature Communications, 2024)

Tests used:
MORC2 WT [1] = target: T1, MORC2 WT (Homo sapiens, UniProt Q9Y6X9 1-1032); assay: SPR; EMSA: 20 mM Tris pH 7.4, 75 mM NaCl, 5% glycerol, 0.005% NP-40, 0.5 mM MgCl2, RT 30 min; SPR: 10 mM HEPES pH 7.4, 300 mM NaCl, 3 mM EDTA, 0.05% Tween-20, 20 C; conditions: protein: recombinant; tags: C-terminal 3C site-twin StrepII; chain copies: 2; label: 5'-biotin on strand 1; blunt
T1 sequence: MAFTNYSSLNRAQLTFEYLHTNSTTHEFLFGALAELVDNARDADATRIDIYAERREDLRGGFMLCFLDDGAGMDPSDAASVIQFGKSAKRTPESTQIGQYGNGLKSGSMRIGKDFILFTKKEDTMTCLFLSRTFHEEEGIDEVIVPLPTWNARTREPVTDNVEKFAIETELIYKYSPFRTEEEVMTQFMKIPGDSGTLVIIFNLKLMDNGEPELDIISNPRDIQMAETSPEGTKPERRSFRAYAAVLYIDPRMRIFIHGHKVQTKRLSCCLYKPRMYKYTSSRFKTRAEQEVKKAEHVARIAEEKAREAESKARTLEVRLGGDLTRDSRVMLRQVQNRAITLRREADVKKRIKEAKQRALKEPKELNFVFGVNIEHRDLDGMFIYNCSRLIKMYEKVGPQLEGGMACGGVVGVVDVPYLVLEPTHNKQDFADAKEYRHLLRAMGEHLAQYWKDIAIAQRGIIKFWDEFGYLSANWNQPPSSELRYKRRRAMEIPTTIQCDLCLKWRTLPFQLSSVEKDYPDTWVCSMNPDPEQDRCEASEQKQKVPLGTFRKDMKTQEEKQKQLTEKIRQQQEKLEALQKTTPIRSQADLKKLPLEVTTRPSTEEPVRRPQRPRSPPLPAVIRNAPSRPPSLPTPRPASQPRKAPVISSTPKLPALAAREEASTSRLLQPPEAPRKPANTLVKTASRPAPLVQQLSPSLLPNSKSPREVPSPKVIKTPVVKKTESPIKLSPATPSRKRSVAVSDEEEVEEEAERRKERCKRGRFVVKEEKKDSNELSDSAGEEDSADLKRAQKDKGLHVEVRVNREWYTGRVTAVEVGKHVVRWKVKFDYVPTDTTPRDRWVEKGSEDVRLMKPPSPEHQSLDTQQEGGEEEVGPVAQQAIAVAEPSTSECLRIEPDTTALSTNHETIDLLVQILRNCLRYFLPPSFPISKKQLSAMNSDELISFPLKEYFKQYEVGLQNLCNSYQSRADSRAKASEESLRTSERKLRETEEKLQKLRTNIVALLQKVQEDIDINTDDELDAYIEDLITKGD

MORC2 dephosphorylated = target: T2, MORC2 dephosphorylated (Homo sapiens, UniProt Q9Y6X9 1-1032); assay: SPR; lambda-PPase treated; EMSA: 20 mM Tris pH 7.4, 75 mM NaCl, 5% glycerol, 0.005% NP-40, 0.5 mM MgCl2, RT 30 min; SPR: 10 mM HEPES pH 7.4, 300 mM NaCl, 3 mM EDTA, 0.05% Tween-20, 20 C; conditions: protein: recombinant; tags: C-terminal 3C site-twin StrepII; chain copies: 2; label: 5'-biotin on strand 1; blunt
T2 sequence: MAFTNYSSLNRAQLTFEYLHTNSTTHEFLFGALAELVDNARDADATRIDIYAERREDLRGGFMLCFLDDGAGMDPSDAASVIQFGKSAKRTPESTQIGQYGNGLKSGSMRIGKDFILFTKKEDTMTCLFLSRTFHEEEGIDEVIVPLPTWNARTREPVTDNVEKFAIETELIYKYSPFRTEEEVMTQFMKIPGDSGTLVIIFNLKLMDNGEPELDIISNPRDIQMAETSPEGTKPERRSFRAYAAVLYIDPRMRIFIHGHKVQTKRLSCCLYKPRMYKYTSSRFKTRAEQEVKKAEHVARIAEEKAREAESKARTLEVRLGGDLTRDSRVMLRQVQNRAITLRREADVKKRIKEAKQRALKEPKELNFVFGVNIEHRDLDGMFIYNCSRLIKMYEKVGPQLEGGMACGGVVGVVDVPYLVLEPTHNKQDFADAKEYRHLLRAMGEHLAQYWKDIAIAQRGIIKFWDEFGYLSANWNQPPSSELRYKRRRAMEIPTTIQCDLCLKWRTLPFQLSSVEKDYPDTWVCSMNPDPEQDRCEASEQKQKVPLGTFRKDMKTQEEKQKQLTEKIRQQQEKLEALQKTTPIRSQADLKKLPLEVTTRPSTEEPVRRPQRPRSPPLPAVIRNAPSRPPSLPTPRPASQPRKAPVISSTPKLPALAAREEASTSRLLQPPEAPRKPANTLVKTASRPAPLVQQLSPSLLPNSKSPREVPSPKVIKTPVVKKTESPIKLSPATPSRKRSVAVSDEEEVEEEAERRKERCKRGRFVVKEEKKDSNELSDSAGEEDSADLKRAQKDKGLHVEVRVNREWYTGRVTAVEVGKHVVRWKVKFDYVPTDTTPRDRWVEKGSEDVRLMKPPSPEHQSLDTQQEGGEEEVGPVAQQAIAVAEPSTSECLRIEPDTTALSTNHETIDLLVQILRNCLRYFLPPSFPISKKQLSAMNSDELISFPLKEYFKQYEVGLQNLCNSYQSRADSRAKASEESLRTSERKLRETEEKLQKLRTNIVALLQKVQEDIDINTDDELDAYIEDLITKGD

MORC2 CC3 = target: T3, MORC2 CC3 (Homo sapiens, UniProt Q9Y6X9 738-776); assay: EMSA; DNA length inferred; EMSA: 20 mM Tris pH 7.4, 75 mM NaCl, 5% glycerol, 0.005% NP-40, 0.5 mM MgCl2, RT 30 min; SPR: 10 mM HEPES pH 7.4, 300 mM NaCl, 3 mM EDTA, 0.05% Tween-20, 20 C; conditions: protein: recombinant; tags: C-terminal 3C site-twin StrepII; label: 5' 6FAM, IRDye680 or IRDye800 on XOm1; blunt
T3 chain: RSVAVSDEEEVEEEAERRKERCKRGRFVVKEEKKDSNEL

MORC2 CC2 = target: T4, MORC2 CC2 (Homo sapiens, UniProt Q9Y6X9 544-587); assay: as above; conditions: protein: recombinant; tags: C-terminal 3C site-twin StrepII; label: 5' 6FAM, IRDye680 or IRDye800 on XOm1; blunt
T4 chain: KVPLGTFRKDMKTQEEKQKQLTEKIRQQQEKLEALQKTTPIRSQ

MORC2 GHKL+CC1 = target: T5, MORC2 GHKL+CC1 (Homo sapiens, UniProt Q9Y6X9 1-495); assay: EMSA; negligible binding; EMSA: 20 mM Tris pH 7.4, 75 mM NaCl, 5% glycerol, 0.005% NP-40, 0.5 mM MgCl2, RT 30 min; SPR: 10 mM HEPES pH 7.4, 300 mM NaCl, 3 mM EDTA, 0.05% Tween-20, 20 C; conditions: protein: recombinant; tags: C-terminal 3C site-twin StrepII; label: 5' 6FAM, IRDye680 or IRDye800 on XOm1; blunt
T5 sequence: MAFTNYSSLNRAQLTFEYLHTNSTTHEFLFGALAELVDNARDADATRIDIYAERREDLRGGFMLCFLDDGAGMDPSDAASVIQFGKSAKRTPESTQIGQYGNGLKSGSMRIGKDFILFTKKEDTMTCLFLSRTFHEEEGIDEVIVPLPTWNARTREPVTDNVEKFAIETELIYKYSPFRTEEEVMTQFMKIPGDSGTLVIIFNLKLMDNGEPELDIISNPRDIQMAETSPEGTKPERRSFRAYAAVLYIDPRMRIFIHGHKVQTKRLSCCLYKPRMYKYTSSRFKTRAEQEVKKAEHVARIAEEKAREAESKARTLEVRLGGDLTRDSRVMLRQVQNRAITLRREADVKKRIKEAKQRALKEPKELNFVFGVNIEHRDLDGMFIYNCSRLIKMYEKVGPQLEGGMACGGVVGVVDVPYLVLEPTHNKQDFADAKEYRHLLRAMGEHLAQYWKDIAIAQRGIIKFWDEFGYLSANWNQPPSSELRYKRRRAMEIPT

MORC2 CW = target: T6, MORC2 CW (Homo sapiens, UniProt Q9Y6X9 496-603); assay: as above; conditions: protein: recombinant; tags: C-terminal 3C site-twin StrepII; label: 5' 6FAM, IRDye680 or IRDye800 on XOm1; blunt
T6 sequence: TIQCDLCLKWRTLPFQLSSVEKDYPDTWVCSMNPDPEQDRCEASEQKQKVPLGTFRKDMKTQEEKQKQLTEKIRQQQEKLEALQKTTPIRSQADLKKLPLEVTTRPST

MORC2 WT [2] = target: T1, MORC2 WT; assay: competition; pre-bound; 90 bp competitor still taken up; EMSA: 20 mM Tris pH 7.4, 75 mM NaCl, 5% glycerol, 0.005% NP-40, 0.5 mM MgCl2, RT 30 min; SPR: 10 mM HEPES pH 7.4, 300 mM NaCl, 3 mM EDTA, 0.05% Tween-20, 20 C; conditions: protein: recombinant; tags: C-terminal 3C site-twin StrepII; chain copies: 2; linear
MORC2 ATPase = target: T7, MORC2 ATPase (Homo sapiens, UniProt Q9Y6X9 1-603); assay: competition; pre-bound; more competitor uptake than WT; EMSA: 20 mM Tris pH 7.4, 75 mM NaCl, 5% glycerol, 0.005% NP-40, 0.5 mM MgCl2, RT 30 min; SPR: 10 mM HEPES pH 7.4, 300 mM NaCl, 3 mM EDTA, 0.05% Tween-20, 20 C; conditions: protein: recombinant; tags: N-terminal 6xHis; closed circle
T7 sequence: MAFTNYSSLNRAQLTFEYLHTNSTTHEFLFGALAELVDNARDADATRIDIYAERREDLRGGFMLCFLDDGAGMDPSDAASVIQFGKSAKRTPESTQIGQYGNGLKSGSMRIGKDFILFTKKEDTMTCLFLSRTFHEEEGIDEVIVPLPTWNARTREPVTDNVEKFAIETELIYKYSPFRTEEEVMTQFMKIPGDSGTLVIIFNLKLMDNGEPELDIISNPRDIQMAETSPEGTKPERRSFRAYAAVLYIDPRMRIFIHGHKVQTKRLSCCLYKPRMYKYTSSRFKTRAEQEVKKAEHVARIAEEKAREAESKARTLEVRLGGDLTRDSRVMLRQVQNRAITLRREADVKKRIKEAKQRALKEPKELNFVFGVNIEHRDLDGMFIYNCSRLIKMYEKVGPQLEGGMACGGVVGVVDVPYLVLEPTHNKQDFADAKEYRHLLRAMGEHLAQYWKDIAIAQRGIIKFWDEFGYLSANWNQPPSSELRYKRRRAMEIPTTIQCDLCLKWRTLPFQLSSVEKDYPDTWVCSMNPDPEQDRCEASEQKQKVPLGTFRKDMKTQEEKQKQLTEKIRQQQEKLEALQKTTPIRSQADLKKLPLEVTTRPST

MORC2 WT [3] = target: T1, MORC2 WT; assay: competition; pre-bound; resists 90 bp competitor (clamp); EMSA: 20 mM Tris pH 7.4, 75 mM NaCl, 5% glycerol, 0.005% NP-40, 0.5 mM MgCl2, RT 30 min; SPR: 10 mM HEPES pH 7.4, 300 mM NaCl, 3 mM EDTA, 0.05% Tween-20, 20 C; conditions: protein: recombinant; tags: C-terminal 3C site-twin StrepII; chain copies: 2; closed circle

B1: 60 bp dsDNA (biotin, SPR) (dsDNA)
DNA 1: ACGCTGCCGAATTCTACCAGTGCCTTGCTAGGACATCTTTGCCCACCTGCAGGTTCACCC
DNA 2: GGGTGAACCTGCAGGTGGGCAAAGATGTCCTAGCAAGGCACTGGTAGAATTCGGCAGCGT
Kd (MORC2 WT [1]): 26.3 ± 11.4 nM
Kd (MORC2 dephosphorylated): 15.3 ± 9.1 nM

B2: 60 bp dsDNA (XOm1/XOm1.comp) (dsDNA)
DNA 1: ACGCTGCCGAATTCTACCAGTGCCTTGCTAGGACATCTTTGCCCACCTGCAGGTTCACCC
DNA 2: GGGTGAACCTGCAGGTGGGCAAAGATGTCCTAGCAAGGCACTGGTAGAATTCGGCAGCGT
binding result (MORC2 CC3): no binding
binding result (MORC2 CC2): binds
binding result (MORC2 GHKL+CC1): no binding
binding result (MORC2 CW): no binding

B3: 101 bp linear dsDNA (dsDNA)
DNA 1: CGGTCGTTTAGCATACTAATCTGAGAGTCCGACGGTCGTCAGTCAGTCATGACTTCACAGAGGAAGGGCCAGTATCCTGTCCAAACTTGATGCTCGAATTC
DNA 2: GAATTCGAGCATCAAGTTTGGACAGGATACTGGCCCTTCCTCTGTGAAGTCATGACTGACTGACGACCGTCGGACTCTCAGATTAGTATGCTAAACGACCG
binding result (MORC2 WT [2]): binds

B4: 101 bp circular dsDNA (dsDNA)
DNA 1: CGGTCGTTTAGCATACTAATCTGAGAGTCCGACGGTCGTCAGTCAGTCATGACTTCACAGAGGAAGGGCCAGTATCCTGTCCAAACTTGATGCTCGAATTC
DNA 2: GAATTCGAGCATCAAGTTTGGACAGGATACTGGCCCTTCCTCTGTGAAGTCATGACTGACTGACGACCGTCGGACTCTCAGATTAGTATGCTAAACGACCG
binding result (MORC2 ATPase): binds
binding result (MORC2 WT [3]): binds
